According to article PMC9240080 (Nature Communications, 2022):

What was measured:
Test in all cases: ELISA
Conditions in all cases: both partners purified
[1] = target: RaTG13-CoV RBD-His8-SpyTag003 (Bat coronavirus RaTG13, heterogeneous N-linked glycosylation)
[2] = target: SHC014-CoV RBD-His8-SpyTag003 (Bat SARS-like coronavirus RsSHC014, heterogeneous N-linked glycosylation)
[3] = target: Rs4081-CoV RBD-His8-SpyTag003 (Bat SARS-like coronavirus Rs4081, heterogeneous N-linked glycosylation)
[4] = target: pangolin17 (pang17)-CoV RBD-His8-SpyTag003 (Pangolin coronavirus pang17, heterogeneous N-linked glycosylation)
[5] = target: RmYN02-CoV RBD-His8-SpyTag003 (Bat coronavirus RmYN02, heterogeneous N-linked glycosylation)
[6] = target: Rf1-CoV RBD-His8-SpyTag003 (Bat SARS-like coronavirus Rf1, heterogeneous N-linked glycosylation)
[7] = target: WIV1-CoV RBD-His8-SpyTag003 (Bat SARS-like coronavirus WIV1, heterogeneous N-linked glycosylation)
[8] = target: Yunnan2011 (Yun11)-CoV RBD-His8-SpyTag003 (Bat coronavirus Cp/Yunnan2011, heterogeneous N-linked glycosylation)
[9] = target: BM48-31-CoV RBD-His8-SpyTag003 (Bat coronavirus BM48-31, heterogeneous N-linked glycosylation)
[10] = target: BtKY72-CoV RBD-His8-SpyTag003 (Bat coronavirus BtKY72, heterogeneous N-linked glycosylation)

Measured: binding result

B1: EY6A (antibody, V domains shown)
VH: EVQLVESGGGVVQPGRSLRLSCAASAFTFSSYDMHWVRQAPGKGLEWVAVISYDGSNKYYADSVKGRFTISRDNSKNTLYLQMNSLRAEDTAVYYCAKDGGKLWVYYFDYWGQGTLVTVSS
VL: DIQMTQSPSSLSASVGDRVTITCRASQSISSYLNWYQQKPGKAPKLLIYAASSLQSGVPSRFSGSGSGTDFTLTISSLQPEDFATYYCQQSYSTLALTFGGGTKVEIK
binds: all assays above
